From patent US20210171610A1 (US Dept. of Health and Human Services, published 2021) come the findings set out here.

The target of experiment [1] is T1, Soluble EBV gH/gL complex (poly-histidine tagged) (Epstein Barr Virus, UniProt P03231 19-679; P03212 24-137).
T1 construct: also called gH/gL Avi-His probe
Description: BLI kinetics, KD on gH/gL against KD on gH/gL/gp42. A general note: Biolayer interferometry detects binding as a change in optical thickness at a sensor tip.

The target in experiment [2] is T1, Soluble EBV gH/gL complex …. Description: BLI (Octet), His-captured soluble gH/gL on HIS1K biosensor, Fab in solution, 1:1 global fit; target gH/gL without gp42.
For experiment [3], the target named is T2, Soluble EBV gH/gL/gp42 complex (HIS-tagged) (Epstein Barr Virus, UniProt P03231 19-679; P03212 24-137; P03205 33-223). Description: BLI (Octet), His-captured soluble gH/gL/gp42 on HIS1K biosensor, Fab in solution, 1:1 global fit; target gH/gL/gp42 (gp42 present).
Experiment [4] has as its target T1, Soluble EBV gH/gL complex …. Description: Biolayer interferometry (Octet), His-tagged gH/gL on HIS1K biosensors, Fab dilution series (top curve labelled 2.50E-08), 1:1 global fit; same panel as FIG. 1C.
Experiment [5] deals with T2, Soluble EBV gH/gL/gp42 complex …. Description: Biolayer interferometry (Octet), His-tagged gH/gL/gp42 on HIS1K biosensors, Fab dilution series (top curve labelled 2.50E-08), 1:1 global fit; same panel as FIG. 1C.
For experiment [6], the target named is T1, Soluble EBV gH/gL complex …. The experiment is described as follows: Biolayer interferometry (Octet), His-tagged gH/gL on HIS1K biosensors, Fab dilution series (top curve labelled 2.50E-08), 300 s association, 900 s dissociation, 1:1 global fit.
Experiment [7] addresses T2, Soluble EBV gH/gL/gp42 complex …. Description: Biolayer interferometry (Octet), His-tagged gH/gL/gp42 on HIS1K biosensors, Fab dilution series (top curve labelled 2.50E-08), 300 s association, 900 s dissociation, 1:1 global fit.
Experiment [8] deals with T1, Soluble EBV gH/gL complex …. Description: Biolayer interferometry (Octet), His-tagged gH/gL on HIS1K biosensors, Fab dilution series (top curve labelled 5.00E-08), 300 s association, 900 s dissociation, 1:1 global fit.
The target of experiment [9] is T2, Soluble EBV gH/gL/gp42 complex …. The experiment is described as follows: Biolayer interferometry (Octet), His-tagged gH/gL/gp42 on HIS1K biosensors, Fab dilution series (top curve labelled 1.00E-07), 300 s association, 900 s dissociation, 1:1 global fit.
The target in experiment [10] is T1, Soluble EBV gH/gL complex …. Description: Biolayer interferometry (Octet), His-tagged gH/gL on HIS1K biosensors, Fab dilution series (top curve labelled 2.50E-08), 300 s association, 900 s dissociation, 1:1 global fit. This is another data set of the same source.
Experiment [11] addresses T2, Soluble EBV gH/gL/gp42 complex …. The experiment is described as follows: Biolayer interferometry (Octet), His-tagged gH/gL/gp42 on HIS1K biosensors, Fab dilution series (top curve labelled 5.00E-08), 300 s association, 900 s dissociation, 1:1 global fit.

T1 sequence (P03231 19-679 limits assumed, chain 1 of 2): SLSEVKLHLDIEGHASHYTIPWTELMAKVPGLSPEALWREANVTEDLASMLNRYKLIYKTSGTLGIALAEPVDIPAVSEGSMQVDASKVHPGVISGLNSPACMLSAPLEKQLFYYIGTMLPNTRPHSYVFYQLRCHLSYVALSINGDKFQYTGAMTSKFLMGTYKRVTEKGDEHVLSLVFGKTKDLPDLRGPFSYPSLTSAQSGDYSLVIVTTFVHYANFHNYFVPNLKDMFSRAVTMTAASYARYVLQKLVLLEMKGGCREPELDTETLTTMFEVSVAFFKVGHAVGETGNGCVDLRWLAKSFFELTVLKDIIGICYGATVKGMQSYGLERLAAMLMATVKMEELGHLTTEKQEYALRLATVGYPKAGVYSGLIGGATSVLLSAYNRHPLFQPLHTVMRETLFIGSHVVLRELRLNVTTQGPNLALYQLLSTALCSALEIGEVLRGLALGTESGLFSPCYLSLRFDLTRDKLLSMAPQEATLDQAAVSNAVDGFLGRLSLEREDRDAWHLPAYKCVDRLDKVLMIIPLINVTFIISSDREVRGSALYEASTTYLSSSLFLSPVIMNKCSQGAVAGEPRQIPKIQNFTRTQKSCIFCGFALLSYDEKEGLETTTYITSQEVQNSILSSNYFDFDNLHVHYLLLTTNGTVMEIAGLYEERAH
T1 sequence (P03212 24-137 limits assumed, chain 2 of 2): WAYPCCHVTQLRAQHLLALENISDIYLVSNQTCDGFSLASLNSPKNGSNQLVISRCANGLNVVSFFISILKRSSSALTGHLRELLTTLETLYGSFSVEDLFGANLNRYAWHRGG
T2 sequence (P03231 19-679 limits assumed, chain 1 of 3): as the sequence (P03231 19-679 limits assumed, chain 1 of 2) above
T2 sequence (P03212 24-137 limits assumed, chain 2 of 3): as the sequence (P03212 24-137 limits assumed, chain 2 of 2) above
T2 sequence (P03205 33-223 limits assumed, chain 3 of 3): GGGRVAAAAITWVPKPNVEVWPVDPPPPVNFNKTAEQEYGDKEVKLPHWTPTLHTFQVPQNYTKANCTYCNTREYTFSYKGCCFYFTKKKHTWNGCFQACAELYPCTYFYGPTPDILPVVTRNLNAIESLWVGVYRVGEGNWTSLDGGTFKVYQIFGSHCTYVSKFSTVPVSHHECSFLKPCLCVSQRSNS

B1: Fab fragment of 769B10 (Fab, V domains shown)
VH: EVQLVESGGGIVQPGGSLRVSCAASGFSLSDHYMDWVRQAPGRGLEWVGRSRNKENSFTTEFAASVRRRFTISRDDSNSLLHLQMNNLKSEDTAVYFCARVGYYDLWSGYSGNWYIDVWGRGTLVIVSS
VL: DIQMTQSPSSLSASLGDSVTITCRASQTMSNFLNWYQQKPGKAPKFLIYAASRLQSGVPSRFSGSGSGTQFTLTISNLQPEDFATYYCQQSFIFPYTFGGGTKVEVE
notes: also called 769B10 Fab; B10 Fab
As for B1, the “fold stronger affinity than for gH/gL/gp42” value in [1] stood at 10 fold. Besides, the values for the Kd in experiment [2] and in experiment [3] were 0.0307 nM and 0.458 nM, respectively. The koff stood at 1.51e-05 s⁻¹ in [4], 2.58e-05 s⁻¹ in experiment [5], 1.51e-05 s⁻¹ in experiment [6] and 2.58e-05 s⁻¹ in [7]. Besides, the kon in experiment [4] is 490000 M⁻¹ s⁻¹; in experiment [5], 564000 M⁻¹ s⁻¹; in experiment [6] it was 490000 M⁻¹ s⁻¹; in experiment [7] it was 564000 M⁻¹ s⁻¹.

B2: Fab fragment of antibody 769C2 (Fab, V domains shown)
VH: EVQLVESGGGLVKPGGSLRLSCAASGFTFSTYAMDWVRQAPGKGLEWVSLISSRSSNIYYSDSVKGRFTISRDNAKNSLFLQMNSLRAEDTAVYYCAREAGGFHSHFDMWGQGTLVTVSS
VL: QSVLTQPASVSGSLGQSVTISCTGTSSDVGGYDYVSWYQQHPGKAPKLMIFEVNNRPSGVSTRFSGSKSGNTASLTISGLQAEDEADYYCNSYSTTTTWVFGGGTSLT
notes: also called 769C2 Fab
In experiment [8], B2 returned a Kd of 1.16 nM, a koff of 0.000292 s⁻¹ and an on-rate constant (kon) of 252000 M⁻¹ s⁻¹. In experiment [9], this molecule yielded a Kd of 2.05 nM, a koff of 0.000425 s⁻¹ and a kon of 207000 M⁻¹ s⁻¹.

B3: Fab fragment of antibody 770F7 (Fab, V domains shown)
VH: QVQFQQWGAGLLKPSETLSLTCGVYGGSLSGYYWSWIRQTPGKGLEWIGEINHTGTTNYNPSLKSRVTMSVDTSKNQFSLKMSSLTAADTALYYCAREGAPRWALKRPSNWFDPWGQGTLVTVSS
VL: EIVLTQSPVSLSLSPGERATLSCRASQSISSTYLAWYQQIPGQAPRLLIYGASSRAAGIPDRFSGGGSGTDFTLTISRLEPEDFAVYYCQQYGSSPRSFGQGTKLEIK
notes: also called 770F7 Fab
Take B3: in experiment [10], binding was put at a Kd of 0.317 nM, the dissociation rate constant (koff) was 0.000165 s⁻¹ and the kon amounted to 520000 M⁻¹ s⁻¹. In [11], this molecule yielded a Kd of 0.207 nM, a dissociation rate constant (koff) of 0.000128 s⁻¹ and a kon of 619000 M⁻¹ s⁻¹.

The Kd is a measure of binding affinity in units of concentration. Broadly, the koff is the first-order rate constant of dissociation. As usually defined, the kon is the rate constant with which the complex forms. A low value points to slower complex formation.
